{
  "source": "paper PMC6945034",
  "about": "“A Genetic Screen To Identify Genes Influencing the Secondary Redox Couple NADPH/NADP^+ in the Yeast Saccharomyces cerevisiae” (G3: Genes|Genomes|Genetics, 2019)",
  "key": {"[1]": {"substrate": "O=C(O)C(=O)CO", "test": "purified protein", "type": "biochemical, Saccharomyces cerevisiae", "conditions": "0.25 mM NADPH, 50 mM potassium phosphate pH 7.4, 30 C, substrate 0-40 mM"}, "[2]": {"substrate": "O=CC(=O)O", "test": "purified protein", "type": "biochemical, Saccharomyces cerevisiae", "conditions": "0.25 mM NADPH, 50 mM potassium phosphate pH 7.4, 30 C, substrate 0-40 mM"}},
  "data": [
    {"protein": "Gor1p (Saccharomyces cerevisiae S288C) (protein, C-terminal 6xHis tag, tag cut not mentioned, expressed in E. coli BL21(DE3), Ni-NTA purified) MSKKPIVLKLGKDAFGDQAWGELEKIADVITIPESTTREQFLREVKDPQNKLSQVQVITRTARSVKNTGRFDEELALALPSSVVAVCHTGAGYDQIDVEPFKKRHIQVANVPDLVSNATADTHVFLLLGALRNFGIGNRRLIEGNWPEAGPACGSPFGYDPEGKTVGILGLGRIGRCILERLKPFGFENFIYHNRHQLPSEEEHGCEYVGFEEFLKRSDIVSVNVPLNHNTHHLINAETIEKMKDGVVIVNTARGAVIDEQAMTDALRSGKIRSAGLDVFEYEPKISKELLSMSQVLGLPHMGTHSVETRKKMEELVVENAKNVILTGKVLTIVPELQNEDWPNESKPLV", "values": [
      {"measurement": "Km", "setting": "[1]", "value": 22.7, "unit": "mM"},
      {"measurement": "Km", "setting": "[2]", "value": 8.4, "unit": "mM"}
    ]}
  ]
}
